Source: article PMC7978432

Experiments:
[1] = biological target: SARS-CoV-1 RBD-5GS-1TD0 (SARS-CoV-1 | not stated); experiment: SDS-PAGE
[2] = biological target: SARS-CoV-2 RBD-5GS-1TD0 (SARS-CoV-2 | not stated) (UniProt P0DTC2); experiment: SDS-PAGE
[3] = biological target: SARS-CoV-2 RBD-5GS-1TD0 (SARS-CoV-2 | not stated) (UniProt P0DTC2); experiment: SEC

| Substance | stoichiometry N [1] | stoichiometry N [2] | stoichiometry N [3] |
| --- | --- | --- | --- |
| SARS-CoV-1 RBD-5GS-1TD0 | 3 |  |  |
| SARS-CoV-2 RBD-5GS-1TD0 (from UniProt P0DTC2 330-532) |  | 3 | 3 |
